Measured values reported in US20250027068.

Target: pooled human IgG (human IgG1,2,3 and 4)

B1: PRT-695 (protein)
chain: MTITTVWTKGVTPPTPEDFRYNNEDVLHAPYVPNQGWYDITKTFDGKDNLLCGAATAGNMLHWWFDQNKEEIERYLKKYPEKQKIIFNNQELFDVRAAINTKDSQTNSKLFNYFRDKAFPNLSARQLGVMPDLVLDMFINGYYLNLGKTQSTDVNRPYQDRDKRGGIFDAVFNRGDQTTLLTARHDLKNKGLNEISDLIKQELSSGKALALSHTYANVRINHVINLWGADFDAEGNLIAIYVTDSDANASIGMKKYYVGVNANGKVAISAKKIEGDNIGAQVLGLFTLSTGQDIWQKLSLEHHHHHH
- Enzyme activity endpoint: Fab′2: 781 ng/µL
- Enzyme activity endpoint: Fc: 433 ng/µL
- Enzyme activity endpoint: IgG: 66 ng/µL
- Enzyme activity endpoint: scIgG: 0 ng/µL

B2: PRT-649 (protein)
chain: MQITSVWTKGVTPLTPEQFRYNNEDVIHAPYLAHQGWYDITKAFDGKDNLLCGAATAGNMLHWWFDQNKTEIEAYLSKHPEKQKIIFNNQYLFDLKAAIDTKDSQTNSQLFNYFRDKAFGNLSARQLGVMPDLVLDMFINGYKLKVNKTQSTDVNRPYQKPDNFGGIFDAVFTRGDQTTLLTARHDLKNKGLNDISTIIKQELTEGRALALSHTYANVSISHVINLWGADFNAEGNLEAIYVTDSDANASIGMKKYFVGINAHGHVAISAKKIEGENIGAQVLGLFTLSSGKDIWQKLSLEHHHHHH
- Enzyme activity endpoint: Fab′2: 657 ng/µL
- Enzyme activity endpoint: Fc: 32 ng/µL
- Enzyme activity endpoint: IgG: 886 ng/µL
- Enzyme activity endpoint: scIgG: 24 ng/µL

B3: PRT-631 (protein)
chain: MQITSVWTKGVTPLTPEQFRYNNEDVIHAPYLAHQGWYDITKAFDGKDNLLCGAATAGNMLHWWFDQNKEEIDNYLKKYPDKQKIIFNNQELFDLKAAIDTKDSQTNSQLFNYFRDKAFPNLSARQLGVMPDLVLDMFINGYYLNVFKTQSTDVNRPYQDKDKRGGIFDAVFTRGDQTTLLTARHDLKNKGLNDISTIIKQELTEGRALALSHTYANVSISHVINLWGADFNAEGNLEAIYVTDSDANASIGMKKYFVGINAHGHVAISAKKIEGENIGAQVLGLFTLSSGKEIWKKLSLEHHHHHH
- Enzyme activity endpoint: Fab′2: 749 ng/µL
- Enzyme activity endpoint: Fc: 419 ng/µL
- Enzyme activity endpoint: IgG: 0 ng/µL
- Enzyme activity endpoint: scIgG: 0 ng/µL

B4: PRT-570 (protein)
chain: MANQEIRYSEATPSHITSVWTKGVTPPEQFIQNEDVLHAPYIANQGWYDITKTFNGKDDLLCGAATAGNMLHWWFDQNKEQIEAYLKKHPEKQKINFNGEQMFDVKEAIDTKDSQTDSALFNYFKDKAFPYLSTKHLGVFPDHVIDMFINGYRLSLTNHGPTPVKEQTKDPRGGIFDAVFTRGDQSKLLTSRHDFKEKTLKEISQLIKQELTEGKALGLSHTYANVRINHVINLWGADFNAEGNLEAIYVTDSDSNASIGMKKYYVGVNSAGKVAISAKEIEGDNIGAQVLGLFTLSTGQDIWQQTNLEHHHHHH
- Enzyme activity endpoint: Fab′2: 551 ng/µL
- Enzyme activity endpoint: Fc: 126 ng/µL
- Enzyme activity endpoint: IgG: 0 ng/µL
- Enzyme activity endpoint: scIgG: 0 ng/µL

B5: PRT-645 (protein)
chain: MQITSVWTKGVTPLTPEQFRYNNEDVIHAPYLAHQGWYDITKAFDGKDNLLCGAATAGNMLHWWFDQNKTEIEAYLSKHPEKQKIIFNNQELFDLKAAIDTKDSQTNSQLFNYFRDKAFPNLSARQLGVMPDLVLDMFINGYYLNVFKTQSTDVNRPYQDKDKRGGIFDAVFTRGDQTTLLTARHDLKNKGLNDISTIIKQELTEGRALALSHTYANVSISHVINLWGADFNAEGNLEAIYVTDSDANASIGMKKYYVGYNKSGRVAISAYKITDENIGAQVLGLFTLSSGKDIWQKLSLEHHHHHH
- Enzyme activity endpoint: Fab′2: 683 ng/µL
- Enzyme activity endpoint: Fc: 455 ng/µL
- Enzyme activity endpoint: IgG: 0 ng/µL
- Enzyme activity endpoint: scIgG: 236 ng/µL

B6: PRT-531 (protein)
chain: MANQEIRYSEDTPSHITSVWTKGVTPPTQFIQNEDVLHAPYIANQGWYDITKTFNGKDDLLCGAATAGNMLHWWFDQNKEQIEAYLKKYPEKQKINFNGEQMFDVKEAIDTKDSQTDSALFNYFRDKAFPNLSTKHLGVMPDHVIDMFINGYRLNLGNHGPTPVKNQTKDLRGGIFDAVFTRGDQSKLLTARHDFKEKTLKEISQLIKQELTEGKALALSHTYANVRINHVINLWGADFNAEGNLEAIYVTDSDSNASIGMKKYYVGVNAAGKVAISAKEIEGDNIGAQVLGLFTLSSGQDIWQQTNLEHHHHHH
- Enzyme activity endpoint: Fab′2: 756 ng/µL
- Enzyme activity endpoint: Fc: 212 ng/µL
- Enzyme activity endpoint: IgG: 0 ng/µL
- Enzyme activity endpoint: scIgG: 0 ng/µL

B7: PRT-638 (protein)
chain: MQITSVWTKGVTPLTPEQFRYNNEDVIHAPYLAHQGWYDITKLNDTGDGLLCGAATAGNMLHWWFDQNKTEIEAYLSKHPEKQKIIFNNQELFDLKAAIDTKDSQTNSQLFNYFRDKAFPNLSARQKGVMPDLVLDMFINGYYLNVFKTQSTDVNRPYQDKDKRGGIFDAVFTRGDQTTLLTARHDLKNKGLNDISTIIKQELTEGRALALSHTYANVSISHVINLWGADFNAEGNLEAIYVTDSNAGNGIGMKKYFVGINAHGHVAISAKKIEGENIGAQVLGLFTLSSGKDIWQKLSLEHHHHHH
- Enzyme activity endpoint: Fab′2: 550 ng/µL
- Enzyme activity endpoint: Fc: 10 ng/µL
- Enzyme activity endpoint: IgG: 823 ng/µL
- Enzyme activity endpoint: scIgG: 17 ng/µL

B8: PRT-669 (protein)
chain: MQITSVWTKGVTPPTPEQFTNNNEDVFHAPYLANQGWYDITKTFNGKDNLLCGAATAGNMLHWWFDQNKEQIEAYLKKHPEKQKIIFNNQEMFDLKKAIDTKDSQTNSALFNYFRDKAFPNLSARQLGVMPDLVLDMFINGYYLNVGKTQSTDVNRPYQTKDKRGGIFDAVFTRGDQTKLLTARHDLKNKGLNEISDLIKQELTEGKALALSHTYANVRINHVINLWGADFNAEGNLIAIYVTDSDSNASIGMKKYFVGVNSAGKVAISAKKIEGDNIGAQVLGLFTLSSGQDIWQKLSLEHHHHHH
- Enzyme activity endpoint: Fab′2: 808 ng/µL
- Enzyme activity endpoint: Fc: 457 ng/µL
- Enzyme activity endpoint: IgG: 0 ng/µL
- Enzyme activity endpoint: scIgG: 0 ng/µL

B9: PRT-626 (protein)
chain: MQITSVWTKGVTPLTPEQFRYNNEDVIHAPYLAHQGWYDITKAFDGKDNLLCGAATAGNMLHWWFDQNKTEIEAYLSKHPEKQKIIFNNQELFDLKAAIDTKDSQTNSQLFNYFRDKAFPNLSARQLGVMPDLVLDMFINGYYLNVFKTQSTDVNRPPDDKDKRGGIFDHVFNRGDQTTLLTARHDLKNKGLNDISTIIKQELTEGRALALSHTYANVSISHVINLWGADFNAEGNLEAIYVTDSDANASIGMKKYFVGINAHGHVAISAKKIEGENIGAQVLGLFTLSSGKDIWQKLSLEHHHHHH
- Enzyme activity endpoint: Fab′2: 569 ng/µL
- Enzyme activity endpoint: Fc: 388 ng/µL
- Enzyme activity endpoint: IgG: 0 ng/µL
- Enzyme activity endpoint: scIgG: 225 ng/µL

B10: PRT-680 (protein)
chain: MQITSVWTKGVTPLTPEQFRYNNEDVIHAPYLPHQGWYDITKAFDGKDNLLCGAATAGNMLHWWFDQNKTEIEAYLSKHPEKQKIIFNNQELFDLRAAINTKDSQTNSALFNYFRDKAFPNLSARQLGVMPDLVLDMFINGYYLNVFKTQSTDVNRPYQDKDKRGGIFDAVFTRGDQTTLLTARHDLKNKGLNDISTIIKQELTEGKALALSHTYANVSISHVINLWGADFNAEGNLEAIYVTDSDANASIGMKKYYVGINAHGHVAISAKKIEGENIGAQVLGLFTLSSGKDIWQKLSLEHHHHHH
- Enzyme activity endpoint: Fab′2: 752 ng/µL
- Enzyme activity endpoint: Fc: 451 ng/µL
- Enzyme activity endpoint: IgG: 0 ng/µL
- Enzyme activity endpoint: scIgG: 277 ng/µL

B11: PRT-604 (protein)
chain: MQITSVWTKGVTPLTPEQFRYNNEDVIHAPYLAHQGWYDITKAFDGKDNLLCGAATAGNMLHWWFDQNKTEIEAYLSKHPEKQKIIFNNQELFDLKAAIDTKDSQTNSQLFNYFRDKAFPNLSARQLGVMPDLVLDMFINGYYLNVFKTQSTDVNRPYQDKDKRGGIFDDVFGKGDQTTLLTARHDLKNKGLNDISTIIKQELTEGRALALSHTYANVSISHVINLWGADFNAEGNLEAIYVTDSDANASIGMKKYFVGINAHGHVAISAKKIEGENIGAQVLGLFTLSSGKDIWQKLSLEHHHHHH
- Enzyme activity endpoint: Fab′2: 51 ng/µL
- Enzyme activity endpoint: Fc: 276 ng/µL
- Enzyme activity endpoint: IgG: 396 ng/µL
- Enzyme activity endpoint: scIgG: 964 ng/µL

B12: PRT-676 (protein)
chain: MQITSVWTKGVTPPTMDQFTNYNYDVFHAPYKPGQGWYDITKTFDGKDNLLCGAATAGNMLHWWFDQNKEEIENYLKKHPEKQKIIFNNQKMFDLRKAINTKDSQTNSALFNYFKDKAFPNLSARQKGVMPDLVLDMFINGYYLNLGKTQSTDVNREYQTKDSRGGIFDDVFGRGDQTKLLTARHDLYNGGLNDISQLIKQELSSGKALGLSHTYANVRYSHVINLWGADFDEEGNLEAIYVTDSDDDASIGMKKYYVGKNASGKVAISAKKIEGENIGAQVLGLFTLSSGKEIWQKLSLEHHHHHH
- Enzyme activity endpoint: Fab′2: 107 ng/µL
- Enzyme activity endpoint: Fc: 136 ng/µL
- Enzyme activity endpoint: IgG: 0 ng/µL
- Enzyme activity endpoint: scIgG: 118 ng/µL

B13: PRT-557 (protein)
chain: MANQEIRYSEEDGKTITSVWTKGVTPPTDFQKNEDVYHAPYVANQGWYDITKTFNGKDDLLCGAATAGNMLHWWFDQNKEEIERYLKKHPEKQKINFNGEQMFDVKEAIDTKDSQTDSALFEYFKDKAFPYLSTKHLGVFPDHVIDMFINGYRLSLTNHGPTPVKDGTKDPRGGIFDAVFTRGDQTKLLTERHDFKEKTLNEISDLIKQELQEGKALGLSHTYANVRINHVINLWGADFDSEGNLEAIYVTDSDSNASIGMKKYYVGVNSAGKVAISAKEIEDDNIGAQVLGLFTLSTGKDIWEQTNLEHHHHHH
- Enzyme activity endpoint: Fab′2: 512 ng/µL
- Enzyme activity endpoint: Fc: 410 ng/µL
- Enzyme activity endpoint: IgG: 0 ng/µL
- Enzyme activity endpoint: scIgG: 194 ng/µL

B14: PRT-616 (protein)
chain: MQITTVWTKGVTPLTPEQFRYNNEDVIHAPYLPHQGWYDITKAFDGKDNLLCGAATAGNMLHWWFDQNKTEIEAYLSKYPEKQKIIFNNQELFDLRAAINTKDSQTNSQLFNYFRDKAFPNLSARQLGVMPDLVLDMFINGYYLNVFKTQSTDVNRPYQDRDKRGGIFDAVFNRGDQTTLLTARHDLKNKGLNDISTIIKQELSSGRALALSHTYANVSISHVINLWGADFNAEGNLEAIYVTDSDANASIGMKKYYVGINAHGHVAISAKKIEGENIGAQVLGLFTLSSGKDIWQKLSLEHHHHHH
- Enzyme activity endpoint: Fab′2: 943 ng/µL
- Enzyme activity endpoint: Fc: 495 ng/µL
- Enzyme activity endpoint: IgG: 0 ng/µL
- Enzyme activity endpoint: scIgG: 0 ng/µL
